{
  "source": "paper PMC3428855",
  "target": "GST coupled TRPM8 N terminal fragment (1~691) (UniProt Q7Z2W7)",
  "sequence (Q7Z2W7 1-691)": "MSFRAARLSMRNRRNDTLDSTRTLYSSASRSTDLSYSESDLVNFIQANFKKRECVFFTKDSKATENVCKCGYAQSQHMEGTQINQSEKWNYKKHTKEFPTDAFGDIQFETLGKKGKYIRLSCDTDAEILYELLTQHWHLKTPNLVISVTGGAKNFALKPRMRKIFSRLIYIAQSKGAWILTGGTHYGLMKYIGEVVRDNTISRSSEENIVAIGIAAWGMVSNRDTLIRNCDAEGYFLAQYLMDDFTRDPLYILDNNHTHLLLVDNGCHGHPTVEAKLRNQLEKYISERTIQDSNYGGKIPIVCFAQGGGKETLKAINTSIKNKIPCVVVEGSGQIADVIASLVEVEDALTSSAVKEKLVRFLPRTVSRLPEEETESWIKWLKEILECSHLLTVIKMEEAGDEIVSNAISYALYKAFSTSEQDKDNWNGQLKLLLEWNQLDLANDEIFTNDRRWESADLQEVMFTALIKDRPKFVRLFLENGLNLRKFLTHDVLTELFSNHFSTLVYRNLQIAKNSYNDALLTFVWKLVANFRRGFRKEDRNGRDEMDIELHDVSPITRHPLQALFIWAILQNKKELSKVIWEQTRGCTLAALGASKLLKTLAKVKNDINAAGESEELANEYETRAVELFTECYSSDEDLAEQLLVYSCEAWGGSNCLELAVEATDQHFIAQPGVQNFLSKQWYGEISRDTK",
  "experiment": "pull-down",
  "data": [
    {"substance": "Gαq (wild type) (from UniProt P50148 1-359) (natural protein)", "values": [
      {"measurement": "fold Gαq bound relative to TRPM8 C terminal", "value": 1.28, "unit": "fold"}
    ]}
  ]
}
